Values belong to the molecule of their own block, whether it stands above or below them.
Assays:
[1] = molecular target: IL1RAPL1-ECD-His6, wild type (mouse) (UniProt P59823); experiment: SPR; equilibrium; Biacore T200, 25 °C, 10 mM Hepes (pH 7.9), 150 mM NaCl, 0.05% Tween-20; IL1RAPL1-ECD-His6 amine-coupled on a CM5 chip (about 2,000 RU); PTPδ Ig1–Fn1 variants or mutants injected as analytes, 15.6 to 4,000 nM
[2] = molecular target: IL-1RAcP-ECD-Fc, wild type (mouse) (UniProt Q61730); experiment: SPR; equilibrium; Biacore T200, 25 °C, 10 mM Hepes (pH 7.9), 150 mM NaCl, 0.05% Tween-20; IL-1RAcP-ECD-Fc captured (about 700 RU) by anti-Fc antibodies immobilised on a CM5 chip; PTPδ Ig1–Fn1 variants or mutants injected as analytes, 15.6 to 4,000 nM
[3] = molecular target: IL1RAPL1-ECD-His6, wild type (mouse) (UniProt P59823)
[4] = molecular target: T1, IL1RAPL1 (Mus musculus (Mouse), UniProt P59823); experiment: SPR equilibrium 25C, PTPRD Ig1-Fn1 analyte
T1 chain: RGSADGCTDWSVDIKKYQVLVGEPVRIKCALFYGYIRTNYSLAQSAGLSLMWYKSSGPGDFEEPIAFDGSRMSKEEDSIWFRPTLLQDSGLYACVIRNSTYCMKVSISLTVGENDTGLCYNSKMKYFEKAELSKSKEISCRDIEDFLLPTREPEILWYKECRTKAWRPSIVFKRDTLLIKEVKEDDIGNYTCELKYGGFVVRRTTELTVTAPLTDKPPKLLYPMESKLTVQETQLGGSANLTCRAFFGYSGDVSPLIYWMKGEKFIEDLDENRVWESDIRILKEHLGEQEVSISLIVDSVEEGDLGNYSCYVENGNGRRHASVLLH

[5] = molecular target: T2, IL1RAP (Mus musculus (Mouse), UniProt Q61730); experiment: SPR equilibrium 25C, PTPRD Ig1-Fn1 analyte
T2 chain: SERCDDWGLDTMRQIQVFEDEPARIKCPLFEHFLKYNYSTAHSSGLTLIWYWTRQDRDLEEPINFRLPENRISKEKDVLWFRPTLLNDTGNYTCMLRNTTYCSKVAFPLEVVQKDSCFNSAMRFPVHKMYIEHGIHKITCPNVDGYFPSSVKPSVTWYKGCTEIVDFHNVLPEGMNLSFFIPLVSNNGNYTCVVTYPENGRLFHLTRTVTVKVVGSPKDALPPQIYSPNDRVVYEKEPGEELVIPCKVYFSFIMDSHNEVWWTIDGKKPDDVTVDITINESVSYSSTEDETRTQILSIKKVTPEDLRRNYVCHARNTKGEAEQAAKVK

Chain of IL1RAPL1-ECD-His6, wild type (mouse) (P59823 19-352): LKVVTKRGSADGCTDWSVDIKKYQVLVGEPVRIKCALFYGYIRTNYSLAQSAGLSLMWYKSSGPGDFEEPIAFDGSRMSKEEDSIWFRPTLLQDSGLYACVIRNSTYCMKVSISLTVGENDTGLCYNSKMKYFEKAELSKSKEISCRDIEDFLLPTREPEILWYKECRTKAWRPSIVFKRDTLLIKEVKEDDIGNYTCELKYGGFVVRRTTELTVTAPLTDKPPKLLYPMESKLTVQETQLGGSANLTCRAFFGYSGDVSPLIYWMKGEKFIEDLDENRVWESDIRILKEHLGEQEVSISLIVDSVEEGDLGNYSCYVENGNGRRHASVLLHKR

Molecule: PTPδ Ig1–Fn1, meB replaced by Gly-Ser-Ser-Gly (domain or fragment)
Kd [2]: 640 nM
Kd [1]: 140 nM

Molecule: PTPδ Ig1–Fn1 splicing variant meA3/− (domain or fragment)
Kd [2]: 2800 nM

Molecule: PTPδ Ig1–Fn1 splicing variant meA9/− (domain or fragment)
Kd [2]: 2000 nM
Kd [1]: 800 nM

Molecule: PTPδ Ig1–Fn1, meB replaced by Gln-Leu-Glu-Gln (domain or fragment)
Kd [2]: 910 nM
Kd [1]: 160 nM

Molecule: PTPδ Ig1–Fn1, meB replaced by three tandem units of meB (domain or fragment)
Kd [2]: 3800 nM
Kd [1]: 420 nM

Molecule: PTPδ Ig1–Fn1 splicing variant −/+ (no meA, with meB) (domain or fragment)
Kd [2]: 2200 nM

B2: PTPRD_A6B0 (protein)
chain: ETPPRFTRTPVDQTGVSGGVASFICQATGDPRPKIVWNKKGKKVSNQRFEVIEFDDGSGSVLRIQPLRTPRDEAIYECVASNNVGEISVSTRLTVLREDQIPRGFPTIDMGPQLKVVERTRTATMLCAASGNPDPEITWFKDFLPVDTSNNNGRIKQLRSGGTPIRGALQIEQSEESDQGKYECVATNSAGTRYSAPANLYVRVRRVPPRFSIPPTNHEIMPGGSVNITCVAVGSPMPYVKWMLGAEDLTPEDDMPIGRNVLELNDVRQSANYTCVAMSTLGVIEAIAQITVKA
Kd [4]: > 4000 nM
Kd [5]: 2300 nM

B3: PTPRD_A9B1 (protein)
chain: ETPPRFTRTPVDQTGVSGGVASFICQATGDPRPKIVWNKKGKKVSNQRFEVIEFDDGSGSVLRIQPLRTPRDEAIYECVASNNVGEISVSTRLTVLREDQIPRGFPTIDMGPQLKVVERTRTATMLCAASGNPDPEITWFKDFLPVDTSNNNGRIKQLRSESIGGTPIRGALQIEQSEESDQGKYECVATNSAGTRYSAPANLYVRELREVRRVPPRFSIPPTNHEIMPGGSVNITCVAVGSPMPYVKWMLGAEDLTPEDDMPIGRNVLELNDVRQSANYTCVAMSTLGVIEAIAQITVKA
Kd [4]: 150 nM
Kd [5]: 680 nM

B4: PTPRD_A9B0 (protein)
chain: ETPPRFTRTPVDQTGVSGGVASFICQATGDPRPKIVWNKKGKKVSNQRFEVIEFDDGSGSVLRIQPLRTPRDEAIYECVASNNVGEISVSTRLTVLREDQIPRGFPTIDMGPQLKVVERTRTATMLCAASGNPDPEITWFKDFLPVDTSNNNGRIKQLRSESIGGTPIRGALQIEQSEESDQGKYECVATNSAGTRYSAPANLYVRVRRVPPRFSIPPTNHEIMPGGSVNITCVAVGSPMPYVKWMLGAEDLTPEDDMPIGRNVLELNDVRQSANYTCVAMSTLGVIEAIAQITVKA
Kd [4]: 800 nM
Kd [5]: 2000 nM

B5: PTPRD_A0B0 (protein)
chain: ETPPRFTRTPVDQTGVSGGVASFICQATGDPRPKIVWNKKGKKVSNQRFEVIEFDDGSGSVLRIQPLRTPRDEAIYECVASNNVGEISVSTRLTVLREDQIPRGFPTIDMGPQLKVVERTRTATMLCAASGNPDPEITWFKDFLPVDTSNNNGRIKQLRSGALQIEQSEESDQGKYECVATNSAGTRYSAPANLYVRVRRVPPRFSIPPTNHEIMPGGSVNITCVAVGSPMPYVKWMLGAEDLTPEDDMPIGRNVLELNDVRQSANYTCVAMSTLGVIEAIAQITVKA
Kd [4]: > 4000 nM
Kd [5]: 2400 nM

B6: PTPRD_A3B1 (protein)
chain: ETPPRFTRTPVDQTGVSGGVASFICQATGDPRPKIVWNKKGKKVSNQRFEVIEFDDGSGSVLRIQPLRTPRDEAIYECVASNNVGEISVSTRLTVLREDQIPRGFPTIDMGPQLKVVERTRTATMLCAASGNPDPEITWFKDFLPVDTSNNNGRIKQLRSESIGALQIEQSEESDQGKYECVATNSAGTRYSAPANLYVRELREVRRVPPRFSIPPTNHEIMPGGSVNITCVAVGSPMPYVKWMLGAEDLTPEDDMPIGRNVLELNDVRQSANYTCVAMSTLGVIEAIAQITVKA
Kd [4]: > 4000 nM
Kd [5]: 510 nM

Next, values leading:

Kd [1]: 860 nM
Molecule: PTPδ Ig1–Fn1 Y273A (domain or fragment)

Kd [2]: 890 nM
Kd [1]: 1700 nM
Molecule: PTPδ Ig1–Fn1 R196A (domain or fragment)

Kd [2]: 2400 nM
Molecule: PTPδ Ig1–Fn1 splicing variant −/− (lacking both meA and meB) (domain or fragment)

Kd [2]: 1500 nM
Kd [1]: 150 nM
Molecule: PTPδ Ig1–Fn1, meB replaced by two tandem units of meB (domain or fragment)

Kd [2]: 2300 nM
Molecule: PTPδ Ig1–Fn1 splicing variant meA6/− (domain or fragment)

Kd [2]: 510 nM
Molecule: PTPδ Ig1–Fn1 splicing variant meA3/+ (domain or fragment)

Kd [2]: 1100 nM
Kd [1]: 2800 nM
synaptogenic (postsynapse-inducing) activity: accumulation of Shank2 in cortical neurons around magnetic beads conjugated with PTPδ-ECD-Fc R75A, against wild-type PTPδ-ECD-Fc [3]: 7%
Molecule: PTPδ Ig1–Fn1 R75A (domain or fragment)

Kd [2]: 5300 nM
Molecule: PTPδ Ig1–Fn1 E286A (domain or fragment)

Kd [2]: 730 nM
Kd [1]: 810 nM
Molecule: PTPδ Ig1–Fn1 splicing variant meA6/+ (domain or fragment)

Kd [4]: > 4000 nM
Kd [5]: 2800 nM
B1: PTPRD_A3B0 (protein)
chain: ETPPRFTRTPVDQTGVSGGVASFICQATGDPRPKIVWNKKGKKVSNQRFEVIEFDDGSGSVLRIQPLRTPRDEAIYECVASNNVGEISVSTRLTVLREDQIPRGFPTIDMGPQLKVVERTRTATMLCAASGNPDPEITWFKDFLPVDTSNNNGRIKQLRSESIGALQIEQSEESDQGKYECVATNSAGTRYSAPANLYVRVRRVPPRFSIPPTNHEIMPGGSVNITCVAVGSPMPYVKWMLGAEDLTPEDDMPIGRNVLELNDVRQSANYTCVAMSTLGVIEAIAQITVKA

Kd [4]: 810 nM
Kd [5]: 730 nM
B7: PTPRD_A6B1 (protein)
chain: ETPPRFTRTPVDQTGVSGGVASFICQATGDPRPKIVWNKKGKKVSNQRFEVIEFDDGSGSVLRIQPLRTPRDEAIYECVASNNVGEISVSTRLTVLREDQIPRGFPTIDMGPQLKVVERTRTATMLCAASGNPDPEITWFKDFLPVDTSNNNGRIKQLRSGGTPIRGALQIEQSEESDQGKYECVATNSAGTRYSAPANLYVRELREVRRVPPRFSIPPTNHEIMPGGSVNITCVAVGSPMPYVKWMLGAEDLTPEDDMPIGRNVLELNDVRQSANYTCVAMSTLGVIEAIAQITVKA

Kd [4]: > 4000 nM
Kd [5]: 2200 nM
B8: PTPRD_A0B1 (protein)
chain: ETPPRFTRTPVDQTGVSGGVASFICQATGDPRPKIVWNKKGKKVSNQRFEVIEFDDGSGSVLRIQPLRTPRDEAIYECVASNNVGEISVSTRLTVLREDQIPRGFPTIDMGPQLKVVERTRTATMLCAASGNPDPEITWFKDFLPVDTSNNNGRIKQLRSGALQIEQSEESDQGKYECVATNSAGTRYSAPANLYVRELREVRRVPPRFSIPPTNHEIMPGGSVNITCVAVGSPMPYVKWMLGAEDLTPEDDMPIGRNVLELNDVRQSANYTCVAMSTLGVIEAIAQITVKA

From article PMC4423211 (2015)
